B1: probe 2 mutant competitor (dsDNA)
DNA 1: ACTAAAGAGAGCTGCTGCTACGTACTA
DNA 2: TAGTACGTAGCAGCAGCTCTCTTTAGT
B2: probe 1 mutant competitor (dsDNA)
DNA 1: AATCCCATCAAATCATCCAAAAAAAAAT
DNA 2: ATTTTTTTTTGGATGATTTGATGGGATT
B3: Bsr-d1 promoter probe 3 (dsDNA)
DNA 1: CTACGTACTATACAGCTTGATTAATTAG
DNA 2: CTAATTAATCAAGCTGTATAGTACGTAG
B4: Bsr-d1 promoter probe 5 (dsDNA)
DNA 1: GGTTTTACGACGACGGCAACGGGGACAGAT
DNA 2: ATCTGTCCCCGTTGCCGTCGTCGTAAAACC
B5: Bsr-d1 promoter probe 2 (dsDNA)
DNA 1: ACCGCTCGCTGCTGCTGCTACGTACTA
DNA 2: TAGTACGTAGCAGCAGCAGCGAGCGGT
B6: Bsr-d1 promoter probe 4 (dsDNA)
DNA 1: AGCTTGATTAATTAGGTTTTACGACGAC
DNA 2: GTCGTCGTAAAACCTAATTAATCAAGCT
B7: Bsr-d1 promoter probe 1 (dsDNA)
DNA 1: AATCCCATCAAATCATCCACCGCTCGCT
DNA 2: AGCGAGCGGTGGATGATTTGATGGGATT

One data set concerns the target T1, His-MoSPAB1ΔSP (Magnaporthe oryzae, UniProt G4N0C3 22-298). Kind of data set: competition; […], buffer not stated; […]. Conditions: protein: recombinant; tags: His, ProS2 (pCold-ProS2); blunt.
B1: the binding result is given as “no binding”. As to B2, the binding result is “no binding”.

In another data set the target is T1, His-MoSPAB1ΔSP. Kind of data set: EMSA; […], buffer not stated; […]. Conditions: protein: recombinant; tags: His, ProS2 (pCold-ProS2); label: 5' biotin (both strands); blunt.
In the case of B3, the binding result is recorded as “binds”. As for B4, the binding result is on record as “binds”. The same measure, in the same setting: next, B5: “binds”; B6: “binds”; B7: “binds”.

The record behind these values is paper PMC10728069.
